Reference: US20140206607A1 (INDIANA UNIVERSITY RESEARCH AND TECHNOLOGY, published 2014)
Numbered stars: 1 amine (or outer) side, 2 acyl side, 3 side chain; on linkers, the order of the positions; unused ones are H or OH. Square brackets hold non-standard residues; d marks the D form. Side chains are listed from the residue outwards. Ends that are not written are not given here. * marks the point of attachment. 40K‑TE PEG = 40 kDa PEG covalently bound via thioether, formed by reaction of the free thiol of the peptide (Cys side chain) with an iodoacetic-functionalized PEG; γGlu = O=C(O)[C@H](CCC(=O)[*:2])N[*:1]; Palmitoyl = CCCCCCCCCCCCCCCC(=O)*; Orn = NCCC[C@H](N)C(=O)O; Aib = CC(C)(N)C(=O)O

T1: GIP receptor (UniProt P48546 22-466)
T1 sequence (looked up): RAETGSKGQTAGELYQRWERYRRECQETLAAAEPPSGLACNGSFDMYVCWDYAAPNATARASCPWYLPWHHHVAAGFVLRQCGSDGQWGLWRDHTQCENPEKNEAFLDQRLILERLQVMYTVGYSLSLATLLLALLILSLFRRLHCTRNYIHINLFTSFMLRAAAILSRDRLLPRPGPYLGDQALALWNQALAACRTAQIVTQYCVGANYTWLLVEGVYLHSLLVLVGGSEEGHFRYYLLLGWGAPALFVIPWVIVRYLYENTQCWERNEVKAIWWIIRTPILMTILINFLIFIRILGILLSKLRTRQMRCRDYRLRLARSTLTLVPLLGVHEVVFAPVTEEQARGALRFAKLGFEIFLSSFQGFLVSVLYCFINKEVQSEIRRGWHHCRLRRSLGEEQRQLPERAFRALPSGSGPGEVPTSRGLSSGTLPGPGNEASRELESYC

B1: peptide of SEQ ID NO: 32 (peptide)
peptide: H[Aib]QGTFTSDK([γGlu-γGlu-Palmitoyl])SKYLD[Aib]RAAQDFVQWLMDTK[dA]-OH
modifications: N-terminus assumed
SMILES: CCCCCCCCCCCCCCCC(=O)N[C@@H](CCC(=O)N[C@@H](CCC(=O)NCCCC[C@H](NC(=O)[C@H](CC(=O)O)NC(=O)[C@H](CO)NC(=O)[C@@H](NC(=O)[C@H](Cc1ccccc1)NC(=O)[C@@H](NC(=O)CNC(=O)[C@H](CCC(N)=O)NC(=O)C(C)(C)NC(=O)[C@@H](N)Cc1c[nH]cn1)[C@@H](C)O)[C@@H](C)O)C(=O)N[C@@H](CO)C(=O)N[C@@H](CCCCN)C(=O)N[C@@H](Cc1ccc(O)cc1)C(=O)N[C@@H](CC(C)C)C(=O)N[C@@H](CC(=O)O)C(=O)NC(C)(C)C(=O)N[C@@H](CCCNC(=N)N)C(=O)N[C@@H](C)C(=O)N[C@@H](C)C(=O)N[C@@H](CCC(N)=O)C(=O)N[C@@H](CC(=O)O)C(=O)N[C@@H](Cc1ccccc1)C(=O)N[C@H](C(=O)N[C@@H](CCC(N)=O)C(=O)N[C@@H](Cc1c[nH]c2ccccc12)C(=O)N[C@@H](CC(C)C)C(=O)N[C@@H](CCSC)C(=O)N[C@@H](CC(=O)O)C(=O)N[C@H](C(=O)N[C@@H](CCCCN)C(=O)N[C@H](C)C(=O)O)[C@@H](C)O)C(C)C)C(=O)O)C(=O)O
B2: peptide of SEQ ID NO: 33 (peptide)
peptide: H[Aib]QGTFTSDK([γGlu-γGlu-Palmitoyl])SKYLD[Aib]RAAQDFVQWLM[Orn]T[Orn]E-OH
modifications: N-terminus assumed
SMILES: CCCCCCCCCCCCCCCC(=O)N[C@@H](CCC(=O)N[C@@H](CCC(=O)NCCCC[C@H](NC(=O)[C@H](CC(=O)O)NC(=O)[C@H](CO)NC(=O)[C@@H](NC(=O)[C@H](Cc1ccccc1)NC(=O)[C@@H](NC(=O)CNC(=O)[C@H](CCC(N)=O)NC(=O)C(C)(C)NC(=O)[C@@H](N)Cc1c[nH]cn1)[C@@H](C)O)[C@@H](C)O)C(=O)N[C@@H](CO)C(=O)N[C@@H](CCCCN)C(=O)N[C@@H](Cc1ccc(O)cc1)C(=O)N[C@@H](CC(C)C)C(=O)N[C@@H](CC(=O)O)C(=O)NC(C)(C)C(=O)N[C@@H](CCCNC(=N)N)C(=O)N[C@@H](C)C(=O)N[C@@H](C)C(=O)N[C@@H](CCC(N)=O)C(=O)N[C@@H](CC(=O)O)C(=O)N[C@@H](Cc1ccccc1)C(=O)N[C@H](C(=O)N[C@@H](CCC(N)=O)C(=O)N[C@@H](Cc1c[nH]c2ccccc12)C(=O)N[C@@H](CC(C)C)C(=O)N[C@@H](CCSC)C(=O)N[C@@H](CCCN)C(=O)N[C@H](C(=O)N[C@@H](CCCN)C(=O)N[C@@H](CCC(=O)O)C(=O)O)[C@@H](C)O)C(C)C)C(=O)O)C(=O)O
B3: peptide of SEQ ID NO: 36 (peptide)
peptide: H[Aib]QGTFTSDK([γGlu-Palmitoyl])SKYLD[Aib]RAAQDFVQWLKDGRG-NH2
modifications: N-terminus assumed
SMILES: CCCCCCCCCCCCCCCC(=O)N[C@@H](CCC(=O)NCCCC[C@H](NC(=O)[C@H](CC(=O)O)NC(=O)[C@H](CO)NC(=O)[C@@H](NC(=O)[C@H](Cc1ccccc1)NC(=O)[C@@H](NC(=O)CNC(=O)[C@H](CCC(N)=O)NC(=O)C(C)(C)NC(=O)[C@@H](N)Cc1c[nH]cn1)[C@@H](C)O)[C@@H](C)O)C(=O)N[C@@H](CO)C(=O)N[C@@H](CCCCN)C(=O)N[C@@H](Cc1ccc(O)cc1)C(=O)N[C@@H](CC(C)C)C(=O)N[C@@H](CC(=O)O)C(=O)NC(C)(C)C(=O)N[C@@H](CCCNC(=N)N)C(=O)N[C@@H](C)C(=O)N[C@@H](C)C(=O)N[C@@H](CCC(N)=O)C(=O)N[C@@H](CC(=O)O)C(=O)N[C@@H](Cc1ccccc1)C(=O)N[C@H](C(=O)N[C@@H](CCC(N)=O)C(=O)N[C@@H](Cc1c[nH]c2ccccc12)C(=O)N[C@@H](CC(C)C)C(=O)N[C@@H](CCCCN)C(=O)N[C@@H](CC(=O)O)C(=O)NCC(=O)N[C@@H](CCCNC(=N)N)C(=O)NCC(N)=O)C(C)C)C(=O)O
B4: peptide of SEQ ID NO: 15 (peptide)
peptide: H[Aib]QGTFTSDYSKYLDEKRA[Aib]EFVC(40K‑TE PEG)WLMDT-NH2
B5: peptide of SEQ ID NO: 35 (peptide)
peptide: H[Aib]QGTFTSDYSKYLDERRA[Aib]EFVC(40K‑TE PEG)WLLDGGPSSGAPPPS-NH2
B6: peptide of SEQ ID NO: 37 (peptide)
peptide: H[Aib]QGTFTSDK([γGlu-γGlu-Palmitoyl])SKYLD[Aib]RAAQDFVQWLMKTK[dE]-OH
modifications: N-terminus assumed
SMILES: CCCCCCCCCCCCCCCC(=O)N[C@@H](CCC(=O)N[C@@H](CCC(=O)NCCCC[C@H](NC(=O)[C@H](CC(=O)O)NC(=O)[C@H](CO)NC(=O)[C@@H](NC(=O)[C@H](Cc1ccccc1)NC(=O)[C@@H](NC(=O)CNC(=O)[C@H](CCC(N)=O)NC(=O)C(C)(C)NC(=O)[C@@H](N)Cc1c[nH]cn1)[C@@H](C)O)[C@@H](C)O)C(=O)N[C@@H](CO)C(=O)N[C@@H](CCCCN)C(=O)N[C@@H](Cc1ccc(O)cc1)C(=O)N[C@@H](CC(C)C)C(=O)N[C@@H](CC(=O)O)C(=O)NC(C)(C)C(=O)N[C@@H](CCCNC(=N)N)C(=O)N[C@@H](C)C(=O)N[C@@H](C)C(=O)N[C@@H](CCC(N)=O)C(=O)N[C@@H](CC(=O)O)C(=O)N[C@@H](Cc1ccccc1)C(=O)N[C@H](C(=O)N[C@@H](CCC(N)=O)C(=O)N[C@@H](Cc1c[nH]c2ccccc12)C(=O)N[C@@H](CC(C)C)C(=O)N[C@@H](CCSC)C(=O)N[C@@H](CCCCN)C(=O)N[C@H](C(=O)N[C@@H](CCCCN)C(=O)N[C@H](CCC(=O)O)C(=O)O)[C@@H](C)O)C(C)C)C(=O)O)C(=O)O

The binders below were run against glucagon receptor (UniProt P47871 26-477, limits assumed) (assay: cell-based or functional assay).
glucagon receptor, sequence (P47871 26-477 limits assumed): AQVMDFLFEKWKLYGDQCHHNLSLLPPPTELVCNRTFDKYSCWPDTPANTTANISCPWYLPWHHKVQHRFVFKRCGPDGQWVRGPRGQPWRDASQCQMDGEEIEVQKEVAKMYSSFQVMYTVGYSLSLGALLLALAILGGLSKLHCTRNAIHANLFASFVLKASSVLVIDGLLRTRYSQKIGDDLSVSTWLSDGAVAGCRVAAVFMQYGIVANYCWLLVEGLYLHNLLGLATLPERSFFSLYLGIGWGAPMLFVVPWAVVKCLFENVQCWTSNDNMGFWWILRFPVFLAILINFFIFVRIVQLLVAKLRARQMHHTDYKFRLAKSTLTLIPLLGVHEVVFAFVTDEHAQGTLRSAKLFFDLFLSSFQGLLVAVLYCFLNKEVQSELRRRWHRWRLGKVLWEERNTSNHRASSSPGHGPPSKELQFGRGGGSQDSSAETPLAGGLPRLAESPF

Binder | EC50 (nM) at glucagon receptor [nM]
B1 | 0.007
B2 | 0.023
B3 | 0.028
B4 | 1.1
B5 | 1.18
B6 | 0.018

The binders below were run against GLP-1 receptor (UniProt P43220 24-463, limits assumed) (assay: cell-based or functional assay).

Binder | EC50 (nM) at GLP-1 receptor [nM]
B1 | 0.008
B2 | 0.019
B3 | 0.003
B4 | 0.071
B5 | 0.085
B6 | 0.016

What follows are binders tested against T1, GIP receptor (assay: cell-based or functional assay).

Binder | EC50 (nM) at GIP receptor [nM]
B1 | 2.08
B2 | 3.96
B3 | 0.47
B4 | 316
B5 | 16.1
B6 | 3.3
